From the supplement of paper PMC9170038

These sequences were tested on MS2 coat protein (assay: apparent KD of MS2 coat protein; higher = weaker reporter binding). Settings: Eterna round: R107; input ligand: theophylline 20 uM.
How it was run: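 On-chip transcription from Illumina sequencing clusters produced the designed RNA switches. These were titrated with SNAP-549-labelled MS2 coat protein (twofold steps, 0.7 or 1.5 nM to 3 µM) in 100 mM Tris-HCl pH 7.5, 80 mM KCl, 4 mM MgCl2, with or without constant ligand. The apparent KD given is the per-design median of normalised cluster binding-curve fits.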

Sequence	apparent KD of MS2 coat protein [nM]
AGUCUUAAUGGAAGGAGCGCAGUCAUAACAUGAGGAUCACCCAUGUCGAGGUGAGGGUCAUUGCAGGUAGGUCGCCAUACUAGGA [Same State - Arginine B (Freestyle 2)]	264
CAAUAGAUAGCGGCCGCCACUUACUCAUGAGGUAACAACAUGAGGAUCACCCAUGUUUGAGGAUCAAGGACCGGGCUAUUUAUUG [AstrosSSTryB#7]	39.1
GCGAUGGAGCGAAGGAGCGGCUGUGACUACAUGAGGAUCACCCAUGUACGAUUGUAAGGUAGCCAGGUAGGUCGCGCUCCAUCGC [SSAB NP+V+V2 #18]	22.5
UCGGACAUGAGGAUCACCCAUGUAAAUCCUCGAGGACCGGUACGGCCGCCACUCGAACGAGUGGCGCGCGAGCGCGCGCUCGCGC [aGa]	67.7
GCACCAGGUACGGAUACCAGAGCAAGCCAAAUGAGUGAACAUGAGGAUCACCCAUGUUUGCUCCCUUGGCAGCCGUACCUGGUGC [ETB NP+V+V2 #11 +-Same Structure]	12.2
UAUCGACACUGAAGGAGCGAGAUGACAAACAUGAGGAUCACCCAUGUUAUGGGUUGUUAAUCUCAGGUAGGUCGCAGUGGUCGCA [Same State Arginine B GF 18]	130
UCGUUUUAGUCGGCCGCCACUGUAUGCAUGUUUAACAUGAGGAUCACCCAUGUCCCGUACUAUAACAGGACCGGGACGUAAUAGA [JR_SSTryptoB_Sub006]	207
AAGUCAGGAGGCGAUACCAGUUACGACAUGGCCAGUUACAUGAGGAUCACCCAUGUGCGGAACCCUUGGCAGCGCUUACAUCGCU [theeternabot_exclusion_MS2_Theo_B_1]	47
CUAUGUAUAUAUGCGAAAGCUACGUGUUGACGAGGACCGGUACGGCCGCCACUCGACAUGAGGAUCACCCAUGUAAUAUAUAUAG [BMP_BFE]	173
UCGGGAACAUGAGGAUCACCCAUGUCAGAAGGAGCGCUGAGAGAAGCAGGUAGGUCGCUGACGUAGGAGCUCUCUUCCUAUACGC [Exclusion - Arginine A]	40.1
AUGUAGAACCGAAGGAGCGCGAUGACAUGAGGAUCACCCAUGUAUUUGUGGUGGCUUCGAUCGCAGGUAGGUCGCGGAAGUAGUA [#04 Exclusion - Arginine B]	162
CUACAUGGGCUCGAUACCAGUCAGCUCUCGCGUCUCUCAGACAUGAGGAUCACCCAUGUUGACCCUUGGCAGCGACGAUGUAGGC [theeternabot_exclusion_MS2_Theo_B_46]	123
AAUUGAAACAGAGGUAUAUACGGACAUUACCGAGGACCGGUACGGCCGCCACUCGACCUAAAACAUGAGGAUCACCCAUGUAGCA [theeternabot_exclusion_MS2_Trp_A_20]	14.2
ACAUGAGGAUCACCCAUGUUAAACACAGAAGGAGCGUGAAGGAACACAGGUAGGUCGCUGUACUUAUUGAGUAUUCACUCGAUAC [JR_Nu_SSArginiA_Sub028]	16.5
AUUCAUGGAAACAUGACAUACAUAACCGGUCGAGGACCGGUACGGCCGCCACUCGUUUGGAGGCACAUGAGGAUCACCCAUGUUA [SS Tryp A #9]	35.9
GGGCCCGGGCGCGAGCCCGGGCCCAUUGAUACCAGUGAUAUAUAACGCCCUUGGCAGCGAAUCCUAACAUGAGGAUCACCCAUGU [5.G]	61.5
UGCGGACAUGAGGAUCACCCAUGUGCGGAUACCAGCAGCCGGCUCUGCCCUUGGCAGCCGCUACCCUUGCACGUUUAACGAUCCA [theeternabot_sameState_MS2_Theo_A_27]	60.2
GUGUGCGGCACGGCCGCCACUGCGGUGGUGUGACAUGAGGAUCACCCAUGUUGUCAUGCGGCCCUUAGGACCGGGUGGCGUGCAC [#1 Exclusion - Tryptophan B Attempt #17 (HarryS)]	61.2
AGAAUAUAGUCGGCCGCCACUCUACAAACAUGAGGAUCACCCAUGUUCACAUAGUGGAAACACAUGAGGACCGGGACAUAGGCAU [#17 Same State - Tryptophan B]	21.4

Same assay, conditions: Eterna round: R107; input ligand: theophylline 2 mM

Sequence	apparent KD of MS2 coat protein [nM]
UGUAUGGACUGAAGGAGCGGUAGAUAGCUUGAGGAUCACCCAAGUAAUAAGGCGAAAGCCUACCAGGUAGGUCGCAGUCCAUACU	26.9
UUUAACAAGAACGUCCUGAGUGACAAGCUACGAGGACCGGUACGGCCGCCACUCGUACCAAAACAUGAGGAUCACCCAUGUUAAA [theeternabot_exclusion_MS2_Trp_A_44]	21.1
UGACAUUGCUCAGAUACCAGACAUGAGCAUCAGCCAUGUACCAAGAGUACAUAUUAAAAUGUCCCUUGGCAGCUGAGCAAUGUCU [Mod of Eli's TheoBX5 #AlternateMS2 v1]	166
UAAUCCGGUCCUCGAUAGGUGAUCCUCUAACGAGGACCGGUACGGCCGCCACUCGAUAACAUGAGGAUCACCCAUGUAAUAAUAA [|T'-M'-Trp-Ms2|_Design16]	45.1
AGAUUCGACACGGCCGCCACUUGUGGUGGAUUAUCCUAUGUAAGACAUGAGGAUCACCCAUGUACAAGGACCGGGUGUUGAGUCU [XTryp B #22]	385
UAAUAGGUCCAGAACGUACCAGGUGAUCAACGAGGACCGGUACGGCCGCCACUCGAAACAUGAGGAUCACCCAUGUAACUGGACC [|T'-M'-Trp-Ms2|_Design 2_ML]	518
AAUCAUGGAAACAUGACAUGAGGAUUACUCCGAGGACCGGUACGGCCGCCACUCGCGAGGAGGCGGACAUGAGGAUCACCCAUGU [#03 Tryptophan A Same State]	189
GACCGGUUAUAGCGCGAUUGUCUUGUGGAAGGAGCGCAGAGGGCUGCAGGUAGGUCGCCACAUGAGGAUCACCCAUGUCAGGAAA [Biraesge]	35.5
UAGAUAGAGGGAAGGAGCGCAGUAACAUAACAUGAGGAUCACCCAUGUAAGAAAUUAAUAAUGCAGGUAGGUCGCCCAAGAUGAU [#10 Same State - Arginine B]	15.1
CACGCACGAUCGGCCGCCACUCGUGUAGCUUACAUGAGGAUCACCCAUGUAUGUUCAUUCAUAUAGAGGACCGGGAUCGUGCGUG [#05 Same State - Tryptophan B]	12.1
UGUAUGUGAUCUGAUACCAGAGUUGAUAACCUGAGGAUCACCCUGGUAAGGCGAAAGCCACUCCCUUGGCAGCAGAUCGCAUACU	18.3
CUACAUUUGUAGAAACCGGUCAACAUUAUUCGAGGACCGGUACGGCCGCCACUCGUAUCAUUUGAUACAUGAGGAUCACCCAUGU [Tryptophan A 8]	26.6
GGAAACCCGACGGCCGCCACUAACGGUCUCAAAAGAGGUUGAACACAUGAGGAUCACCCAUGUAAUAGGACCGGGUCGUGUGAAA [Design 1]	19.4
AGUCUUAAUGGAAGGAGCGCAGUCAUAACAUGAGGAUCACCCAUGUCGAGGUGAGGGUCAUUGCAGGUAGGUCGCCAUACUAGGA [Same State - Arginine B (Freestyle 2)]	240
CAAUAGAUAGCGGCCGCCACUUACUCAUGAGGUAACAACAUGAGGAUCACCCAUGUUUGAGGAUCAAGGACCGGGCUAUUUAUUG [AstrosSSTryB#7]	31.9
GCGAUGGAGCGAAGGAGCGGCUGUGACUACAUGAGGAUCACCCAUGUACGAUUGUAAGGUAGCCAGGUAGGUCGCGCUCCAUCGC [SSAB NP+V+V2 #18]	24.6
UCGGACAUGAGGAUCACCCAUGUAAAUCCUCGAGGACCGGUACGGCCGCCACUCGAACGAGUGGCGCGCGAGCGCGCGCUCGCGC [aGa]	62.5
